The text below walks through data of the RNAGym collection of RNA variant scans (doi:10.1021/acssynbio.7b00057).

The labels stand for the following.
B1: Pistol ribozyme (parent)
chain: GGGUCGUUGUUCCAUAAUCGCGUGGAUAUGGCACGCAAGUUUCUACCGGGCACCGUAAAUGUCCGACUGGAGCCGUUCGGGCGGCUAUAAACAGACCUCAGGCCCGAAGCGUGGCGGCACCUGCCGCCGGUGGUAAAAAAGAUCGGAAGAGCACACGUCU

This series covers variants of B1. Description: aptazyme ON/OFF ratio, guanine; higher = stronger switching; co-transcriptional cleavage with and without guanine.
GGGUCGACCGCUCAUAAUCGCGUGGAUAUGGCACGCAAGUUUCUACCGGGCACCGUAAAUGUCCGACUGGAGCCGUUCGGGCGGCUAUAAACAGACCUCAGGCCCGAAGCGUGGCGGCACCUGCCGCCGGUGGUAAAAAAGAUCGGAAGAGCACACGUCU: the “aptazyme ON/OFF ratio” value is 1.09.
Regarding GGGUCGCCCUCUAAUAAUCGCGUGGAUAUGGCACGCAAGUUUCUACCGGGCACCGUAAAUGUCCGACUGGAGCCGUUCGGGCGGCUAUAAACAGACCUCAGGCCCGAAGCGUGGCGGCACCUGCCGCCGGUGGUAAAAAAGAUCGGAAGAGCACACGUCU, the “aptazyme ON/OFF ratio” value turned out to be 1.05.
For GGGUCGAUUAUGAAUAAUCGCGUGGAUAUGGCACGCAAGUUUCUACCGGGCACCGUAAAUGUCCGACUGGAGCCGUUCGGGCGGCUAUAAACAGACCUCAGGCCCGAAGCGUGGCGGCACCUGCCGCCGGUGGUAAAAAAGAUCGGAAGAGCACACGUCU, the “aptazyme ON/OFF ratio” value is 1.25.
In the case of GGGUCGAUGGUUAAUAAUCGCGUGGAUAUGGCACGCAAGUUUCUACCGGGCACCGUAAAUGUCCGACUGGAGCCGUUCGGGCGGCUAUAAACAGACCUCAGGCCCGAAGCGUGGCGGCACCUGCCGCCGGUGGUAAAAAAGAUCGGAAGAGCACACGUCU, the “aptazyme ON/OFF ratio” value is 1.41.
GGGUCGGCUCUUGAUAAUCGCGUGGAUAUGGCACGCAAGUUUCUACCGGGCACCGUAAAUGUCCGACUGGAGCCGUUCGGGCGGCUAUAAACAGACCUCAGGCCCGAAGCGUGGCGGCACCUGCCGCCGGUGGUAAAAAAGAUCGGAAGAGCACACGUCU: the “aptazyme ON/OFF ratio” value was 1.24.
Turning to GGGUCGUUCGGGAAUAAUCGCGUGGAUAUGGCACGCAAGUUUCUACCGGGCACCGUAAAUGUCCGACUGGAGCCGUUCGGGCGGCUAUAAACAGACCUCAGGCCCGAAGCGUGGCGGCACCUGCCGCCGGUGGUAAAAAAGAUCGGAAGAGCACACGUCU, the “aptazyme ON/OFF ratio” value was found to be 1.1.
With GGGUCGAGUGUGCAUAAUCGCGUGGAUAUGGCACGCAAGUUUCUACCGGGCACCGUAAAUGUCCGACUGGAGCCGUUCGGGCGGCUAUAAACAGACCUCAGGCCCGAAGCGUGGCGGCACCUGCCGCCGGUGGUAAAAAAGAUCGGAAGAGCACACGUCU the figure was 1.15; with GGGUCGGGUCGACAUAAUCGCGUGGAUAUGGCACGCAAGUUUCUACCGGGCACCGUAAAUGUCCGACUGGAGCCGUUCGGGCGGCUAUAAACAGACCUCAGGCCCGAAGCGUGGCGGCACCUGCCGCCGGUGGUAAAAAAGAUCGGAAGAGCACACGUCU, 1.32.
The figure for GGGUCGGGAAGAAAUAAUCGCGUGGAUAUGGCACGCAAGUUUCUACCGGGCACCGUAAAUGUCCGACUGGAGCCGUUCGGGCGGCUAUAAACAGACCUCAGGCCCGAAGCGUGGCGGCACCUGCCGCCGGUGGUAAAAAAGAUCGGAAGAGCACACGUCU is 1.13; for GGGUCGUAUGCUGAUAAUCGCGUGGAUAUGGCACGCAAGUUUCUACCGGGCACCGUAAAUGUCCGACUGGAGCCGUUCGGGCGGCUAUAAACAGACCUCAGGCCCGAAGCGUGGCGGCACCUGCCGCCGGUGGUAAAAAAGAUCGGAAGAGCACACGUCU it is 1.05; for GGGUCGCAUCCGCAUAAUCGCGUGGAUAUGGCACGCAAGUUUCUACCGGGCACCGUAAAUGUCCGACUGGAGCCGUUCGGGCGGCUAUAAACAGACCUCAGGCCCGAAGCGUGGCGGCACCUGCCGCCGGUGGUAAAAAAGAUCGGAAGAGCACACGUCU it is 1.03.
Regarding GGGUCGCGUAAGCAUAAUCGCGUGGAUAUGGCACGCAAGUUUCUACCGGGCACCGUAAAUGUCCGACUGGAGCCGUUCGGGCGGCUAUAAACAGACCUCAGGCCCGAAGCGUGGCGGCACCUGCCGCCGGUGGUAAAAAAGAUCGGAAGAGCACACGUCU, the “aptazyme ON/OFF ratio” value is 1.11.
The figure for GGGUCGCCGACCUAUAAUCGCGUGGAUAUGGCACGCAAGUUUCUACCGGGCACCGUAAAUGUCCGACUGGAGCCGUUCGGGCGGCUAUAAACAGACCUCAGGCCCGAAGCGUGGCGGCACCUGCCGCCGGUGGUAAAAAAGAUCGGAAGAGCACACGUCU is 1.03; for GGGUCGGUUUUUCAUAAUCGCGUGGAUAUGGCACGCAAGUUUCUACCGGGCACCGUAAAUGUCCGACUGGAGCCGUUCGGGCGGCUAUAAACAGACCUCAGGCCCGAAGCGUGGCGGCACCUGCCGCCGGUGGUAAAAAAGAUCGGAAGAGCACACGUCU it is 2.07.
The figure for GGGUCGUGCUGAUAUAAUCGCGUGGAUAUGGCACGCAAGUUUCUACCGGGCACCGUAAAUGUCCGACUGGAGCCGUUCGGGCGGCUAUAAACAGACCUCAGGCCCGAAGCGUGGCGGCACCUGCCGCCGGUGGUAAAAAAGAUCGGAAGAGCACACGUCU is 1.08; for GGGUCGAACUAUAAUAAUCGCGUGGAUAUGGCACGCAAGUUUCUACCGGGCACCGUAAAUGUCCGACUGGAGCCGUUCGGGCGGCUAUAAACAGACCUCAGGCCCGAAGCGUGGCGGCACCUGCCGCCGGUGGUAAAAAAGAUCGGAAGAGCACACGUCU it is 1.1.
GGGUCGUCAGUUAAUAAUCGCGUGGAUAUGGCACGCAAGUUUCUACCGGGCACCGUAAAUGUCCGACUGGAGCCGUUCGGGCGGCUAUAAACAGACCUCAGGCCCGAAGCGUGGCGGCACCUGCCGCCGGUGGUAAAAAAGAUCGGAAGAGCACACGUCU: the “aptazyme ON/OFF ratio” value came out at 1.19.
For the variant GGGUCGCGACUGGAUAAUCGCGUGGAUAUGGCACGCAAGUUUCUACCGGGCACCGUAAAUGUCCGACUGGAGCCGUUCGGGCGGCUAUAAACAGACCUCAGGCCCGAAGCGUGGCGGCACCUGCCGCCGGUGGUAAAAAAGAUCGGAAGAGCACACGUCU, the “aptazyme ON/OFF ratio” value was determined as 1.12.
